{"source": "paper PMC9976899", "about": "“Identification of a novel 5-aminomethyl-2-thiouridine methyltransferase in tRNA modification” (Nucleic Acids Research, 2023)", "target": "the molecule itself", "assay": "SEC; oligomeric state of saMnmM in solution examined by size exclusion chromatography; conditions not given", "data": [{"protein": "Staphylococcus aureus MnmM (5-aminomethyl-2-thiouridine methyltransferase, formerly YtqB) (enzyme, MnmM (YtqB) of Staphylococcus aureus, UniProt Q2FXG9; gene codon-optimized and synthesized; Truncated constructs are stated only for the plant orthologs; A C-terminal His-tag (pLATE31) is stated expressly only for the B. subtilis gene; also called saMnmM; saYtqB; source: E. coli BL21(DE3), purified (HisTrap HP, SEC Superdex 75)) MKLERILPFSKTLIKQHITPESIVVDATCGNGNDTLFLAEQVPEGHVYGFDIQDLALENTRDKVKDFNHVSLIKDGHENIEHHINDAHKGHIDAAIFNLGYLPKGDKSIVTKPDTTIQAINSLLSLMSIEGIIVLVIYHGHSEGQIEKHALLDYLSTLDQKHAQVLQYQFLNQRNHAPFICAIEKIS", "values": [{"measurement": "stoichiometry N", "value": 2}]}]}
